Source: the nanobody polyreactivity screen of Harvey et al. (2022)

Test: yeast display, Sf9 membrane polyspecificity reagent, FACS + sequencing; frameworks hold sequencing errors
Procedure, shortened: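 Nanobodies from a synthetic yeast display library (Saccharomyces cerevisiae BJ5465), induced 36–48 hours with galactose, were stained 1 hour at 4 °C with 10% biotinylated, detergent-solubilized Sf9 membrane reagent, enriched on streptavidin microbeads, then FACS-sorted. Anti-HA (expression) and streptavidin (reagent binding) fluorescence set low and high (top ~1%) gates. Polyreactivity labels come from the gate of origin. Genes were colony-PCR amplified, MiSeq 2 × 250 sequenced and filtered by CDR length.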

| Sequence | polyreactivity (PSR sort gate) |
| --- | --- |
| QVKLVESGGGLVQAGGSLRLSCAASGFIFRGYAMGWYRQAPGKERELVAAINYSGGSTYYADSVKGRFTISRDYAKNTVYLQMNSAKPEYTAVYYCNALGLRYYEYDYWGQGTQVNVSS | low polyreactivity |
| QVQLVESGGGLVQAGGSLRLSCAASGRISLRNGMGWYRQAPGKERELVAAISRGGSTYYADSVKGRFTISRDNAKNTVYLHMNSLKPEDTAVYYCNAYIRPIYVDDDYWGQSTQVTVSS | low polyreactivity |
| QVQLVESGGGLVQAGGSLRLSCAASGFIFPWYAMGWYRLAPGKERELVAIISWDTGSTYYADSVKGRFTISRDNAKNTVYLQMNSLKPEDTAVYYCVAYVCSTYSAPEYYWGQGTQVTVSS | low polyreactivity |
| QVQLVESGGGLVQAGGSLRLSCAASGRIFRVYAMGWSRQAPGKERELVAAIRWTGGSTYYADSVKGRFKISRDNAKNTVYIQIHSLKAEDTAVSYCAAGRYYSDGSRTIYDYWGQGTQVTGSS | high polyreactivity |
| QVQLVESGGGLVQAGGSLRLSCAASGLTFLYNAMGWYRRATGKERELVASITNGGSTNYADSVKGRFTISRDNEKNTVYLQMNSLKPEDTAVYYCAKAAVDVGQRTPWEYDYWGQGTQVTVSS | low polyreactivity |
| QVQLVESGGGLVQAGGSLRLSCAASGSIFAINAMGWYRQAPGKERELVAAIRSGGRTYSADSEKGRFTISRDNAKITVYLQMNSLKPEDTAVYYCTDGGKWIGSDYWGQGTQVTVSS | high polyreactivity |
| QVQLVESGGGLVQAGGSLRLSCAASGFIFNIYAMGWYRQAPGKERELVAAITFSGGSTYYADSVKGRFTISRDNAKNTVYLQKNSLKPEDTAVYYCAADYLSEYTTYDYWGQGTQVTVSS | low polyreactivity |
| QVQLVESGGGLVQAGGSIPLSCAASGIIFYYNTMGWYRQAPGKERELVATSTASDGSTYADSVKGRFTISSDNAKNTVYLQMNRLKPEDTAVYYCNADTRTQGPFSAPYYREMNYWGQGSQVTVSS | low polyreactivity |
| QVQLVESGGGLVQAGGSLRLSCAASGFIFYRNTMGWYRQAPGKERELVATISRRGGSTYYADSVKGRFTISRDNAKHTVYLQMNSLKPEDTAVYYCNADQEYSRPRYGMDYWGQGTQVTVSS | high polyreactivity |
| QVQLVESGGGLVQAGGSLRLSCAASGFTFEYNAMGWYRQAPGKERELVAVITYRGGSTYYADSVKGRFTISRDHAKNTVYLQMNSLKPEDTAVYYCAARLSSNYWGLKRWGYGYWGQGTQVTVSS | high polyreactivity |
| QVQHVDSGGCLVQAGGTLRLSCAASGFTLWAYAMGWYRQAPGKEREFVAVISRSDGSTYYADSVKGRFTISRENAKNTVYLQMNSLKPEDSAVYYCAAKHRGAKYDYWGQGTQVTVSS | low polyreactivity |
| QVQLVESGGGLVQAGGSLRLSCAASGFTFFWYAMGWYRQAPGKERELVAGITYRGGSTYYADSVKGRFTISRDNAKNTVYLQMNSLKPEDTAVYYCNADVVTKHISAWWDRYYRRYYYWGQGTQVTVSS | low polyreactivity |
| QVQLVESGGGLVQAGGSLRLSCAASGFIFESNAMGWYRQAPGKERELVAAITKRGGSTYYADSVKGRFTISRDNAKNTVYLQMNSLKPEDTAVYYCARYSSRYSSGYDYWGQGTQVTVSS | high polyreactivity |
| QVQLVESGGGLVQAGGSLRLSCAASGITFNAYAMGLYRQAPGKERELVAAISRSGGSTYYADSVKGRFTISRDNANNTVYLQMNSLKPEDTAVYYCAVDYRTRGDYWGQGTQVTVSS | high polyreactivity |
| QVQLVESGGGLVQAGGSLRLSCAASGSTFFRYAMGWYRQAPGKERELVAAISKSGASTYYADSVKGRFTISRDNAKNTVYLQMNSLKPEDTAVYYCNADVKKSSAREWQYGYDYWGQGTQVTVSS | low polyreactivity |
| QVQLVESGGGLVQAGGSLRLSCAASGSTLRTYAMVWYRQAPGKERELVAAISFSTTSTYYADSVKGRFTISRDNATNTVYLQMNSLKPEDTAVYYCAATYQILTTSAHDSWGQGTQVTVSS | high polyreactivity |
| QVQLVESGGGLVQAGGSLRLSCAASGYTFGYNALGWYRQAPGKERELVAAISNGGSTNYADSVKGRFTISRDNAKNTVYLQMNSLKPEDTAVYYCAAASRLHIGYWRYDFWGQGTQVTVSS | low polyreactivity |
| QVQLVESGGGLVQAGGSLRLSCAASGFIFEKYTMGWYRQAPGKERELVAAITWNGGSTYYADSVKGRFTISRDNAKNTVYLQMNSLIPEDTAVYYCARDDRDISGESGREGFLYDYWGQGTQVTVSS | low polyreactivity |
| QVQLVESGGGLVQAGGSLRLSCAASGSIFSVYAMGWYRQAPGKERELVAVIWRGGSTNYADSVKGRFTISRDNAKNTVYLQMNSLKPEVTALYYCNARTFYRKFWYQFVSSYGYDYWGQGTQVTVSS | low polyreactivity |
| QVQLVESGGGLVQAGGSLRLSCAASGRTFKPYAMGWYRQAPGKERELVAAISTGGSTNYADSVKGRFTISRDNAKNTVYLQMKSLKPEDTAVYYCAALYSYFWLIIDYGYWGQGTQVTVSS | low polyreactivity |
| QVQLVESGGGLVQAGGSLRLSCAASGFTFPWYAMGWDRQAPGKERELVASISYRGDSTYYADSVKGRFTFSRDNAKNTVYLQMNSLKPEDTAVYYCNKRLASYYLPGFDYWGQGTQVSVSS | low polyreactivity |
| QVQLVETGGGLVQAGGSLRLSCAASGRTIRKYAMGWYRQAPGKERELVAAISWSGGSTYYANSVKGRFTISRDNAKNTVYLQMKSLKPVDTEVYYCAAVPVHTGSLYWGFTTGYDYWGQGTQVTVSS | low polyreactivity |
